Assay results: publication PMC5849085 (Immunity, 2017)

Columns and labels:
[1] = target: T1, human IL-1RAcP (residues 1-350) (human, UniProt Q9NPH3 21-350); assay: HDX-MS
T1 sequence (looked up): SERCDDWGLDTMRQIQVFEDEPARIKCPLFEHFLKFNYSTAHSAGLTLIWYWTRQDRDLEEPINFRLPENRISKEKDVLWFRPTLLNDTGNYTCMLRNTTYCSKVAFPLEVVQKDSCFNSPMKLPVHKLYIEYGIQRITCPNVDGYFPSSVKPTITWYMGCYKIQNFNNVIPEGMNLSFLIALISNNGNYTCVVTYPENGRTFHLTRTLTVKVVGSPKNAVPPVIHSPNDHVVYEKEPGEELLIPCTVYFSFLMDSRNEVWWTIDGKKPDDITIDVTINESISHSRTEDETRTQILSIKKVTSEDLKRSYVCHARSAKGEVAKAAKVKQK

[2] = target: T2, human IL-1RAcP (residues 1-350) fused to human IgG1-Fc (human, UniProt Q9NPH3 21-350); assay: SPR
T2 sequence (looked up): T1 sequence (looked up)

half-life of the ternary complex (EX1 kinetics of IL-1RAcP(150-156)) [1]: 10 min | half-life of the ternary complex [2]: 26 min
B1: human IL-33:ST2 binary complex (complex)
chain 1: SITGISPITEYLASLSTYNDQSITFALEDESYEIYVEDLKKDEKKDKVLLSYYESQHPSNESGDGVDGKMLMVTLSPTKDFWLHANNKEHSVELHKCEKPLPDQAFFVLHNMHSNCVSFECKTDPGVFIGVKDNHLALIKVDSSENLCTENILFKLSET
chain 2: QTGKFSKQSWGLENEALIVRCPRQGKPSYTVDWYYSQTNKSIPTQERNRVFASGQLLKFLPAAVADSGIYTCIVRSPTFNRTGYANVTIYKKQSDCNVPDYLMYSTVSGSEKNSKIYCPTIDLYNWTAPLEWFKNCQALQGSRYRAHKSFLVIDNVMTEDAGDYTCKFIHNENGANYSVTATRSFTVKDEQGFSLFPVIGAPAQNEIKEVEIGKNANLTCSACFGKGTQFLAAVLWQLNGTKITDFGEPRIQQEEGQNQSFSNGLACLDMVLRIADVKEEDLLLQYDCLALNLHGLRRHTVRLSRK
